In paper PMC9174178 (Cell Reports, 2022):

Biological target: SARS-CoV-2 spike HexaPro (S) (SARS-CoV-2 (Wuhan-Hu-1), UniProt P0DTC2, stabilised)
Test: cryo-EM structure

B1: psNb 2-67 (VHH)
VHH: EVQLVESGGGLVQTGGSLRLSCALSGYTFSIFPTAWFRQAPGKEREFVAGIRWNGSTRDYTEYADFVKGRFTISRDNAKNMVYLQMISLKPEDTALYYCAASDGVIDGTNANAYRYWGQGTQVTVSS
Q: Does B1 bind?
A: binds

B2: psNb 2-38 (VHH)
VHH: QVQLVESGGGLVQAGGSLRLSCAAAARFSTSAMGWFRQAPGKEREFVAAISWSNTNTHYADTVKGRFTISADTAKETVDLQMNSLKPEDTAVYYCVQGGWGIRQPIIVDYWGKGTQVTVSS
Q: Does B2 bind?
A: binds

B3: psNb 2-45 (VHH)
VHH: QVQLVESGGGLVQAGGSLRLSCTASGYDFSILAIAWYRQAPGKERELVAAISRVGSTDYADSVKGRFTISRDNTKNTVSLQMDSLKPEDTAVYYCNAGIPMTTVLSGLGFWGQGTQVTVSS
Q: Does B3 bind?
A: binds

B4: psNb 1-8 (VHH)
VHH: QVQLVESGGGLVQTGGSLRLSCAASGRTFSNYVMGWFRQAPGKEREFVSSIEWNSENTFYANSVKGRFTISRDNAKNTVYLQMNSLKAEDTAVYYCAADRGSSYYYTRASEYTYWGQGTQVTVSS
Q: Does B4 bind?
A: binds

B5: psNb 1-23 (VHH)
VHH: QVQLVESGGGLVQAGGSLRLSCAASGRTDSISDMGWFRQAPGKEREFVAVVGWSGGGTDYAHSVKGRFTISRDNAKNTVYLQMNSLKPEDTAVYYCAVGSLRVGSFSVEYWGQGTQVTVSS
Q: Does B5 bind?
A: binds

B6: psNb 1-22 (VHH)
VHH: HVQLVESGGGLVQPGGSLRLSCAASGRSFNSYLMGWFRQAPGKEREFVAWISGSPHDIIRYRDSVKDRFTISRDNAKNTVYLQMNSLKPVDTAVYYCAVGSLRVGSFSPDYWGQGTQVTVSS
Q: Does B6 bind?
A: binds

B7: psNb 2-65 (VHH)
VHH: HVQLVESGGGLVQAGGSLRLSCAASGTISTLNAMGWYRQAPGKQRELLASISNLGTTYHADSVAGRFTISRGSAKNTVNLQMNSLKPDDTAVYYCNTRVLEGGTQIRDYWGQGTQVTVSS
Q: Does B7 bind?
A: binds

B8: psNb 2-34 (VHH)
VHH: HVQLVESGGGLVQAGGSLRLSCAASGRTFSRYAAGWFRQAPGKEREFVAVIEWDGDSAYYADPVKGRFTISRDNAKNTVYLQMNRLKPEDTAVYICAVGGNHYSRSKYYNLDEYDDWGQGTQVTVSS
Q: Does B8 bind?
A: binds

B9: psNb 2-57 (VHH)
VHH: QVQLVESGGGLVQAGGSLRLSCAVSGRTISTFGMGWFRQAPGKEREFVATITRDEDMLLYADSVKGRFTISRDTAKNMVFLQMNSLKIEDTALYYCAVRRDSSWGYSRQSTEYDYWGQGTQVTVSS
Q: Does B9 bind?
A: binds
